System: T cells
Assay: CD40L expression of CA2 regulated CD40L constructs in T cells by FACS (dose response, time course)
Type: cell-based
Details: for CD40L positive / MFI: Ligand N/A; for CD40L MFI / Percentage CD40L positive cells: constitutive CD40L
From the text: CD40L constructs regulated by Carbonic anhydrase DDs were generated and cloned into lentiviral vectors. Purified T cells were thawed and cultured with aCD3 aCD28 Dynabeads (in the ratio of 3 beads to 1 T cell).
The constructs were transduced in T cells the next day. […]

B1: OT-001661: constitutive CD40L control (protein)
chain: MHMIETYNQTSPRSAATGLPISMKIFMYLLTVFLITQMIGSALFAVYLHRRLDKIEDERNLHEDFVFMKTIQRCNTGERSLSLLNCEEIKSQFEGFVKDIMLNKEETKKENSFEMQKGDQNPQIAAHVISEASSKTTSVLQWAEKGYYTMSNNLVTLENGKQLTVKRQGLYYIYAQVTFCSNREASSQAPFIASLCLKSPGRFERILLRAANTHSSAKPCGQQSIHLGGVFELQPGASVFVNVTDPSQVSHGTGFTSFGLLKL
CD40L positive (Example 9, All Cells): 98%
MFI (Example 9, All Cells): 20451
CD40L positive (Example 9, CD4+): 98.7%
MFI (Example 9, CD4+): 24489
CD40L positive (Example 9, CD8+): 97.8%
MFI (Example 9, CD8+): 14352
CD40L MFI (time course 2 hours, CD4+): 4042
Percentage CD40L positive cells (time course 2 hours, CD4+): 72.8%
CD40L MFI (time course 2 hours, CD8+): 2212
Percentage CD40L positive cells (time course 2 hours, CD8+): 56.9%
CD40L MFI (time course 4 hours, CD4+): 4651
Percentage CD40L positive cells (time course 4 hours, CD4+): 77%
CD40L MFI (time course 4 hours, CD8+): 2994
Percentage CD40L positive cells (time course 4 hours, CD8+): 63.2%
CD40L MFI (time course 6 hours, CD4+): 3156
Percentage CD40L positive cells (time course 6 hours, CD4+): 67.2%
CD40L MFI (time course 6 hours, CD8+): 1773
Percentage CD40L positive cells (time course 6 hours, CD8+): 48.5%
CD40L MFI (time course 24 hours, CD4+): 9491
Percentage CD40L positive cells (time course 24 hours, CD4+): 93.3%
CD40L MFI (time course 24 hours, CD8+): 3563
Percentage CD40L positive cells (time course 24 hours, CD8+): 71.2%
CD40L MFI (time course 48 hours, CD4+): 5639
Percentage CD40L positive cells (time course 48 hours, CD4+): 88.5%
CD40L MFI (time course 48 hours, CD8+): 2313
Percentage CD40L positive cells (time course 48 hours, CD8+): 71.1%
